According to publication PMC11437124 (Nature Communications, 2024):
Changes are numbered by the printed parent chain. Where two headings read alike, the source gives them in different places.

Tests used:
[1] = target: T1, 18-mer TREM2 peptide (148-165) (Homo sapiens, UniProt Q9NZC2); experiment: crystal structure
T1 chain: ESFEDAHVEHSISRSLLE

[2] = target: human TREM2 extracellular domain (ECD) (Homo sapiens, UniProt Q9NZC2)
[3] = target: T2, human TREM2 on live cells (Homo sapiens, UniProt Q9NZC2)
[4] = target: T2, human TREM2 on live cells; experiment: flow cytometry on cells
[5] = target: T3, TREM2 peptide 149-161, wild type (Homo sapiens, UniProt Q9NZC2); experiment: BLI
T3 chain: SFEDAHVEHSISR

[6] = target: T4, TREM2 peptide 149-168 (Homo sapiens, UniProt Q9NZC2, biotinylated at the amino-terminus); experiment: ELISA
T4 chain: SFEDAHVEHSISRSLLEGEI

[7] = target: T5, peptide with the entire TREM2 stalk region (Homo sapiens, UniProt Q9NZC2, biotinylated at the amino-terminus); experiment: ELISA
T5 chain: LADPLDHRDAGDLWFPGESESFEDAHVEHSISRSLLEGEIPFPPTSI

[8] = target: these 4 clones (3.10C2, 3.27H7, 3.18E5 and 3.50G1), SPR screening; experiment: SPR

B1: huPara.09 Fab fragment (Fab, V domains shown)
VH: EVQLVESGGGLVQPGGSLKLSCATSGFPFSNVWLHWVRQASGKGPEWVAHIKAKSDNYATYYAESVKGRFTISRDDSKNTVYLQMNSLKTEDTAVYYCTDILEYWGQGTLVTVSS
VL: DVVMTQSPLSLPVTPGEPASISCRSSRSLLTSKGITSLYWYLQKPGQSPQLLIYRMSNLASGIPDRFSGSGSGTDFTLKISRVEAEDVGVYYCAQFLVYPYTFGPGTKVEIK
- binding result [1]: binds

B2: 3.10A7 (antibody, V domains shown)
VH: AVQLVESGGGLVQPKESLKISCAASGITFSNAAMFWVRQAPGKGLEWVARIRTKPNNYATNYADSVKGRFTISRDDSKSMVYLQMDNLKTEDTAMYYCTAGTTVVPFDYWGQGVMVTVSS
VL: DIVMTQSPSSLAVSAGETVTIDCKSSQSLLYSGNQKTYLAWYQQKPGQSPKLLIYWASTRQSGVPDRFIGSGSGTDFTLTISSVQAEDLAIYYCQQYYDTPLTFGSGTKLEIK
- binding result [2]: binds
- binding result [3]: binds

B3: 3.21B10 (antibody, V domains shown)
VH: AVQLIESGGGLVQPKGSLKISCAASGFTFSDAAMFWVRQAPGKGLEWIARIRTKPNNYATYYADSVRGRFTISRDDSKSMVYLQMDNLKTDDTAMYYCIEGVNYGGSPFVYWGQGTLVTVSS
VL: B2 VL with D22N, T37S, G72V, T100I, L110V
- binding result [2]: binds
- binding result [3]: binds

B4: antibody 3.41B10 (antibody, V domains shown)
VH: AVQLVESGGGLVQPKESLKISCEASGFTFTNAAMNWVRQAPGKGLEWVARIRTKPNNYRTYYADSVRGRFTISRDDSKSMVHLQMDNLKTEDTAMYYCTGEGPQGGFVYWGQGTLVTVSS
VL: B2 VL with A12T, E17G, D22N, N34D, Q35R, T37N, A57S, T100S, E111D
- binding result [4]: binds

B5: antibody 3.18E5 (antibody, V domains shown)
VH: EVQLVETGGSLVQPGKSLKLTCATSGFPFSNVWMHWVRQSPEKQLEWIAHIKAKSDNYATYYAESVKGRFTISRDDSKTTIYLQMNSLKEADTAIYYCTGLDYWGQGVMVTVSS
VL: DTVLTQAPLSVSVTPGESASISCRSNKSLLGIRDITSLYWYLQKPGKSPQLLIYRMSNLASGVPDRFSGSGSETDFTLKISEVETEDVGVYYCAQFLRYPYTFGPGTKLELK
- binding result [4]: binds

B6: antibody 3.50G1 (antibody, V domains shown)
VH: B5 VH with T80S, E90D, A91D
VL: B5 VL with Y41F, K112Q
- binding result [4]: binds

B7: Fab fragment of antibody Para.09 (Fab, V domains shown)
VH: EVQLVETGGSLVQPGKSLRLTCATSGFPFSNVWLHWVRQSPEKHPEWVAHIKAKSDNYATYYAESVKGRFTISRDDSKSSVFLQMNSLKEEDTAIYYCTDILEYWGQGTLVTVSS
VL: B5 VL with V11L, N26S, I32V
- binding result [5]: binds

B8: Fab fragment of antibody 3.10C2 (Fab, V domains shown)
VH: B5 VH with T80S, A91D
VL: B5 VL with V11L, N26S, I32V
- binding result [5]: binds

B9: antibody Para.09 (IgG, with the light chain of 3.10C2) (antibody, V domains shown)
VH: B7 VH
VL: B5 VL with V11L, N26S, I32V
- binding result [6]: binds
- binding result [7]: binds

B10: human TREM2 extracellular domain (ECD) (domain or fragment)
chain: HNTTVFQGVAGQSLQVSCPYDSMKHWGRRKAWCRQLGEKGPCQRVVSTHNLWLLSFLRRWNGSTAITDDTLGGTLTITLRNLQPHDAGLYQCQSLHGSEADTLRKVLVEVLADPLDHRDAGDLWFPGESESFEDAHVEHSISRSLLEGEIPFPPTS
- Kd [8]: 140 to 670 pM

B11: antibody 3.27H7 (antibody, V domains shown)
VH: EVQLVETGGSLVQPGGSLKLTCATSGFPFSNVWLHWIRRSPEKQLEWVAQIKARSDNYATYYAESVKGRFIVSRDDSKTTIYLQMNNLKEEDTAIYYCTGLDYWGQGVMVTVSS
VL: DVVLTQAPLSVSVTPGESASISCRSSRSLLTSKGITSLYWYLQKPGMSPHLLIYRMSNLASGIPDRFSGSGSETDFTLKISEVEPEDVGVYYCAQFLVYPYTFGAGTKLELK
- binding result [4]: binds
